In test [1] the target is Cytolysin A (ClyA) wild type, N-terminally His6-tagged (E. coli) (UniProt P77335). The experiment in a line: FRET or BRET + cross-linking; rate coefficient of pore closure in the non-sequential assembly model fitted to the single-molecule FRET data, set so that the predicted formation of complete pores matches the cross-linking data (500 nM ClyAwt, 0.1% DDM, 22 °C).
Test [2] has the same target. The experiment in a line: FRET or BRET; single-molecule intramolecular FRET of ~100 pM labelled ClyA freely diffusing, with 5 nM to 5 uM unlabelled ClyAwt; assembly triggered with 0.1% (w/v) DDM by manual mixing; 22 °C; 20 mM potassium phosphate pH 7.3, 150 mM NaCl, 0.001% Tween-20, 10 mM DTT; global fit of the histogram time series with the non-sequential assembly model (irreversible steps).

For “Cytolysin A (ClyA) wild type, N-terminally His6-tagged (from UniProt P77335 2-303) (natural protein)”, the k6 (association rate coefficient of pore closure, two oligomers to the complete pore) in test [1] is > 1e+07 M⁻¹ s⁻¹.
“ClyA Q56C/E252C labelled with Alexa Fluor 488 at Cys56 and Alexa Fluor 594 at Cys252 (from UniProt P77335 2-303) (natural protein)”: the k5 (association rate coefficient of all oligomerization steps that lead to incomplete pores) in test [2] stood at 102000 M⁻¹ s⁻¹.

The values are drawn from paper PMC4347018.
